Experimental data taken from publication PMC8192573.

Biological target: OsBOR3_(∆1–642) (Oryza sativa)
Assay: cryo-EM structure; OsBOR3 (1 mg/mL) in 20 mM Tris (pH 7.5), 150 mM NaCl, 0.75x CMC LMNG on Quantifoil grids; 116,140 particles; 3D refinement with C2 symmetry imposed; 5-6 Å

stoichiometry N: 2
Substance: OsBOR3_(∆1–642) (domain or fragment)
